Source: a protein production outcome set (Wang et al. 2014)

Test: label from the status in PepcDB records

Sequence | protein production
MVTSSSMRRCRGALSLSFWIFLVLRSVLSRPVFGAAAGPAVQSARQCSASRGTGESDPPPFQPTLRLFPPSRRRRSYCRAMTPSRPSPDFPDGGFVQVRGARQHNLKDISVKVPRDALVVFTGVSGSGKSSLAFGTLYAEAQRRYLESVSPYARRLFNQAGVPDVDAIDGLPPAVALQQARGTPTARSSVGSVTTLSNLLRMLYSRAGDYPPGQGIVYAEGFSPNTPEGACPECHGLGRVYTVTEDSMVPDPSLTIRERAVAAWPQAWGGQNQRDILVTLGIDVDVPWRELPEETRHWILFTDEQPVVPVYPGLTPAETQRALKKKMEPSYMGTFSSARRHVLHTFANTESASMKKRVQGYMISEECPLCHGKRLRQEALNVTFAGLDITELSRLPLARVSELLRPYAEEREPGHAERVKNRPEQAIALQRMAADLVKRLDVLLHLGLGYLGLDRSTPTLSPGELQRLRLATQLYSNLFGVVYVLDEPSAGLHPADTEALLSALENLKRGGNSLFVVEHDLDVIRRADWLVDVGPEAGEKGGEILYSGPPEGLKHVPESQTGQYLFADRHTEPHTPREPAGWLELNGVTRNNLDNLDVRFPLGVMTSVTGVSGSGKSTLVSQALVDALAAHFGQPVNPDPEDDEDPADHTAGSARLGGDLAQITRLVRVDQKPIGRTPRSNMATYTGLFDQVRKLFAATPLAKKRGYNAGRFSFNVKGGRCEHCQGEGWVMVELLFLPSVYAPCPVCHGTRYNAETLEVEYRGKNIADVLALTVDEAHDFFADESAIFRALDTLREVGLGYLRLGQPATELSGGEAQRIKLATELQRSGRGGTVYVLDEPTTGLHPADVERLQRQLVKLVDAGNTVIAVEHKMQVVAASDWVLDIGPGAGEDGGRLVAQGTPAEVAQAAGSVTAPYLRAALRLEHHHHHH | failed
MVTVMRTLMPKIGRIAAKMTLCALCVAPMFSVQATELNWPEQPFRYYADNDSLKDLLNNFGANYRVSVSVSDKVNDRVSGRFTPEDPAEFLDYLAQVYNLMWYFDGAVLHVYKATETRSRLLQLELLTARELRSTLISTGVWDARYGWRAAENKGLVYLAGPPRYVELVVQTAEALESRLLQKSNSTDELFVELIPLKYASATDRSISYRDQSITVPGIASVLSRVVGGVQTQITDSASVQTSSVNGLPAEAAKPRGKTASVHGGATVEAEPGLNAIIVRDTQARLPLYRKLVAQLDQPQSRIEVALSIVDISANDLRQLGVDWRAGVSVGNNRIVDIKTTGDVDNGDVTLGSGQSFKSLLDSTNLNYLLAQIRLLESKGSAQVVSRPTLLTQENVEAVLNNSSTFYVKLVGKETAALEEVTYGTLLRIVPRIVGDRFATRPEINLSLHLEDGAKIPDGGVDDLPSVRKTEISTLATVKQGQSLLIGGVYRDEVSHQLRKVPLLGDIPYLGALFRSNTNTTRRTVRMFIIEPRIVVDGIGDSVLIGNEHDLRPSIGQLNNISNNSAEFKSVVEVFSCTSKTQAERYQQDLLSQQKSSLLTQCQLPSGQVGWRVKVAECDLSQAECVRPSEEP | failed
MVVLMLCAALLVIVGCPETALGKGLRRWLVDWPAKVLAGLTPARLVLLLALLAVSTLVVVLFEVEGAILLGMALPEVAVWFMAFDVAVFIDLFAAIALAANGARLKGLGDRIKALPRRFGRGLVARVRRSGQGRQGGRRFRRPGSGATKSEDGDAGWSGAAQPGALAWA | failed
MVVNKRLILILLFILNTAKSDELSWKGNDFTLYARQMPLAEVLHLLSENYDTAITISPLITATFSGKIPPGPPVDILNNLAAQYDLLTWFDGSMLYVYPASLLKHQVITFNILSTGRFIHYLRSQNILSSPGCEVKEITGTKAVEVSGVPSCLTRISQLASVLDNALIKRKDSAVSVSIYTLKYATAMDTQYQYRDQSVVVPGVVSVLREMSKTSVPASSTTNGSPATQALPMFAADPRQNAVIVRDYAANMAGYRKLITELDQRQQMIEISVKIIDVNAGDINQLGIDWGTAVSLGGKKIAFNTGLNDGGASGFSTVISDTSNFMVRLNALEKSSQAYVLSQPSVVTLNNIQAVLDKNITFYTKLQGEKVAKLESITTGSLLRVTPRLLNDNGTQKIMLNLNIQDGQQSDTQSETDPLPEVQNSEIASQATLLAGQSLLLGGFKQGKQIHSQNKIPLLGDIPVVGHLFRNDTTQVHSVIRLFLIKASVVNNGISHG | failed
MVYFYPINDSRWYTFIHLFLYCKALKLLVVPNSKGVSPIFNQITIHNQHTENWLIIGLFCGAFVTGADAFIISALLPAIATSLHVPTNTAAYGVTVYALCYAIGAPLFGPLGDRFNKRFLLIRGCGIFLLGTLLCGLANSLLTFYLYRAIAGIGAALFVPNIWAFIGTYFNGQRLNQVMGIVMSALSLSIATGVPLGALLAQLSSWHMAFWGSAMLTLIALSILTIAIPSLPSQNAQPDGYFTSFKTLVHTPHAIAALLITLTWMTGFYGVYTFLGVFATATFHFNTMQTGLIFITYGSANFVASFFAGKLISLLGKKQSVTINGLVSATLVLSLGIWGQHLAVLLIILVVLALSQGWGVTALTATIVNIVPSNRSTIMSFNSAFLYYGLTLGSAAGGLLLTKIGFYAVTIAAATALLVAVLIANALSHYSD | failed
MVYVDPDRFDELVAEALDGIPEEFARAMRNVAVFVEDEPDDPELLGLYVGIPLTERTTAYGGVLPDRIIIYRNTICALCETESEVIDEVRKTVVHEIAHHFGIDDERLHELGY | not failed
MWAFLVEQPNLPYTIAFACVLVLGVFEALALLIGLSMMSALDQWVPADVEYDADIGGSGLTGIAGWLCLNRLPLLIWFVLALTSFAIAGYLVNYISLMVSATLLPQLFTLPIAVVGSALSCRYLGRMLADLLPKNESTAISLDDLSGYVGTITLGCAIKGMPSEAVVRDKHQQKHYVLVEPETSGIEFASGTQVVLLKREGRVWSATRFDN | failed
MWAGMYPSQPDQVKSKPTYILNYFINPMTGSDILGLLMVYVYVAVLLLVSERFLGDRPNLSRKFVHIMVGNILFILPLFESRLVITFLAAAPFILITFLLSPYSPLRVKHRASSYGHGLGLVYYSISWTILAYLFFEAPWITGIGIAAMSYGDGFASLTGERFGRTTFSVLGDKKSLEGSLGMFIILLVMLPVVLTYYSQGFTPYLILGVALVSTVLEALTPRGLDNLTACFGAVAAYILLGGMGI | failed
MWIFFRFISGIYLKNFFIIFFSLLGFYCGIDLLLNFKDLPKAANLDLLYVMFLSFSAVPYVLPISLIFALVVSLISMIRANEFVSLYALGLSRNYVILFPFLWALFFCCIYIGLNFTSFAYANDYKRNILKNGTIMNQSGEVFLKFNNNFVYISKINNGQNSAQNIKIFNINDLNLSSFVSAKNAYFEGESWILRDGNITLLPKNYELANDGLKIQDFSELKSLEGFKPKIIEGVASNSDYSISDALESFELFKAQNVNTDALKINLYKFVFTPFFAPFLMLIMYYFFPVIARFFNLAIVTFMAFVVTLMIWGVLFLLTRLSENSVIASEIGIVVPIIILGCLSAYMYYKHR | failed
MWKCHRYMMSSHLHRQLDLINMEIKTIASGSKGNAYVISSGRSQLLIECGVNFDKIRKALNFDLSAVEACLISHEHGDHVAGVKKMLRTSSIKIYASEGTLSALNVPDSRQFILKEKDAQNIGEWIILPFQTEHDAKEPLGFMIQRHNERLLFITDSYFVRYKFKNINYLMIECNYSADILEENVINKVIHQVQKKRVLQSHFSLENVKEFLNANDLSQLREIHLLHISERNGDPERFKKEIQAMTGVPVYV | failed
MWKPLLIAVGLLSLVCGAIGVVLPVIPTTPFLLLSAFCFTRSSERLHNYLVSHRIFGEYISNYYNHAMTPQHKFRTLLTLWCGIILSCFLIGATIPWIILPLIATGVSIHIIRLKPRPEATPTASSPEADSGSEPHFADDHKA | failed
MWLLCDCLLCFPLSPEEFLTEILDLLELVFVILVVCEWKPKRFAGEFRLLMEQRVQLRVGTMETISNEGDVDREQVLETFGIENETGKETNGSRSFDVGYSSGDTLETLPKASKVDISPADVLKTLFFILVWYTFSTFLTLYNKTLLGDDLGKFPAPLLMNTIHFSIQAVLSKMITWYWSGRFQPDVTISWRDYFVRVVPTALGTAMDINLSNESLVFISVTFATMVSYFIYYVQICSPNISSSVCFCLQSPSLKLFGIISVISAGVLLTVAKETEFEFWGFVFVMLAAVMSGLKNPFIFMSCVAPVMAIATGLLSLLLDPWSEFRDNKYFDSGAHFARTCFLMLFGGALAFCMVLTEYVLVSVTSAVTVTIAGVVKEAVTIVVAVFYFHDEFTWLKGVGLMIIMVGVSLFNWYKYDKLQKGHKTEEEKQLQAPSQTGKYVILDEMDDQENSP | failed
